# Results reported in US9611465B2, “Pharmaceutical composition containing core factor involved in proliferation and differentiation of central nervous cell” (Celgene Corporation, priority 2009, dated 2017).
# Where a SMILES comes first, the peptide text is derived from it. The star is where a group is joined. Cbz = O=C(OCc1ccccc1)*
# B1: CRBN: protein called CRBN (cereblon) that forms a ubiquitin ligase complex; overexpressed in zebrafish embryos by injected or lipofected crbn RNA (protein, UniProt Q68EH9 1-431, looked up)
# Protein cereblon: MGNQLQLLPENEEEEEDDMETEDRDGEDVEKPSIINFDTSLPTSHAYLGSDMEEFHGRTLHDEDSVQNLPVLPHVALILIPGQTLPLQLFRPQEVSMFRNLVSQDRTFAVLAHSPDPSGTETKAEFGTTAEIYAFREEQEYGIETVKIKAVGRQRFRVHDIRTQADGIRQAKVQILPERILPDPLCALQFLPRLHTHSPQTKHTQTTPPQKRCSQNYRQKKLHCASMTSWPPWVYSLYDSKTLMSRVKKQLHEWDENLKDESLPTNPTDFSYRVAACLPIDDALRLQLLKIGSAIQRLRCELDIMDRCTSLCCKQCQDTEITSKNEIFSLSLYGPMAAYVNPHGYVHETLTVYKASNLNLIGRPSTLHSWFPGYAWTIAQCRTCSSHMGWKFSAVKKDLSPPRFWGLTRSALLPTIPQGEEGVEGSRLLCL
# Assays:
# [1] = target: T1, Ub/E1/E2 (GST fusion ubiquitin, Uba1, UbcH5b) (Homo sapiens, UniProt P0CG47+P22314+P62837); assay: Ubiquitin ligase activity of CRBN using an in vitro reaction system; format: biochemical; details: added to Uba1, UbcH5b and GST fusion ubiquitin; FIG. 4, lane 2
# T1 construct: a recombinant GST fusion ubiquitin (Ub) protein
# Protocol: This process was carried out basically in accordance with the method of Groisman et al. Firstly, CRBN and a binding protein (referred to as a CRBN complex) were purified from a cell lysate solution of mammalian cells expressing CRBN fused with a FLAG epitope tag using M2 FLAG agarose beads (SIGMA). Subsequently, the CRBN complex thus purified was mixed with an aqueous solution containing Uba1 (E1), UbcH5b (E2), and a recombinant GST fusion ubiquitin (Ub) protein, and after addition of ATP, the mixture was left to stand at 30 to 37° C. for two hours. Thereafter, the reaction was terminated by SDS, and self-ubiquitination and ubiquitination of the binding protein were visualized by polyacrylamide gel electrophoresis and immunoblotting, whereby the ubiquitin ligase activity was detected and measured.
# [2] = tested on: mammalian cells expressing CRBN fused with a FLAG epitope tag; assay: CRBN ubiquitin ligase activity using live cells (self-ubiquitination, immunoblotting); format: cell-based; details: MG132 added versus not added (FIG. 5)
# Protocol: This process was carried out basically in accordance with the method of Ohtake et al. MG132, which is a proteasome inhibitor, was applied to mammalian cells expressing CRBN fused with a FLAG epitope tag, and the cells were left still. Subsequently, the cells were disrupted, and from the resulting cell lysate solution, FLAG was purified and CRBN was extracted, and then immunoblotting was performed under similar, but stricter, conditions to the above, whereby the self-ubiquitination was detected and measured.
# zebrafish embryo brain = assay: Determination of functional hierarchy of Lhx2 and CRBN (knockdown plus head-specific overexpression); format: in vivo
# Protocol: (§1) The method of lipofection was entirely in accordance with the technique developed and published by Ando et al. (Ando and Okamoto, Efficient transfection strategy for the spatiotemporal control of gene expression in zebrafish. Mar. Biotechnol. 8(3): 295-303, 2006).
# An aqueous solution of a 25-mer antisense morpholino oligonucleotide (AMO, Gene Tools, LLC) corresponding to the vicinity of the translation initiation codon in the cDNA sequence of the gene to be knocked down (700 ng/μl, injection conditions were the same as those used for RNA) was injected into the embryos at the 1-cell stage. The sequence of AMO used for crbn gene knockdown is 5′ […] 3′ (SEQ ID NO:1), and that used for lhx2 gene knockdown is 5′ […] 3′ (SEQ ID NO:2).
# This process was carried out entirely in accordance with the technique of Ando et al. (H. Ando et al., Lhx2 mediates the activity of Six3 in zebrafish forebrain growth. Dev. Biol. 287(2): 456-468, 2005) except for the following procedure. […] When the effect of knocking down of A is rescued, whereas the effect of knocking down of B is not rescued by an inverted combination of A and B, within a 24-hour period after fertilization, it is determined that A lies functionally upstream of B. […]
# [3] = tested on: forebrain and midbrain of the zebrafish embryos; assay: CRBN overexpression experiment in the forebrain and midbrain; format: in vivo
# Protocol: Adult fish were reared at a constant temperature of 28.5° C. and maintained and bred under a diurnal cycle of 14 hours of light-on and 10 hours of light-off. Fertilized eggs were secured by natural mating between males and females, and an aqueous solution of 600 ng/μl capped RNA synthesized in vitro was injected into the cytoplasm of the embryos before the first cleavage (1-cell stage) under conditions of a nitrogen gas pressure of 30 psi and a valve opening time of 30 msec (millisecond). Because the expression of all the genes except the lhx2 gene (i.e., the crbn gene, the six3.2 gene, and a gene encoding a protein composing an E3 ubiquitin ligase complex with crbn) has little impact on the embryonic development, even when systemically expressed, this method was used to obtain the first data.
# as §1
# Antibody staining of early neurons of zebrafish was performed by the following technique. The embryos 24 to 28 hours after fertilization were fixed at 4° C. for 12 hours in a 4% paraformaldehyde/phosphate buffer (pH 8.0). […]
# [4] = tested on: glia cells and serotonin-producing cells of zebrafish; assay: Fluorescent staining of glia cells and serotonin-producing cells; format: in vivo; details: CRBN-overexpressing individual
# Protocol: Two-day-old zebrafish were used (for glia cell staining and serotonin-producing cell staining, zebrafish 56 hours and 49 hours after fertilization were used, respectively). Zebrafish were fixed with 4% paraformaldehyde (PFA) and then washed with phosphate buffer (PBS), followed by treatment with 10 μg/ml protease K for partial digestion of the epidermis. After the digestion reaction, the zebrafish were washed with PBST (PBS+0.5% Triton X-100) for 20 minutes and then fixed with PFA again. The fixed zebrafish were washed with PBST at room temperature for one hour, followed by blocking using PBST+5% goat serum. The resulting specimens were reacted with a monoclonal anti-glia antibody (zrf-1/zrf-2) or a rabbit anti-serotonin antibody at 4° C. overnight (12 to 18 hours). Subsequently, the specimens were washed with PBST+5% goat serum for one hour at room temperature, and secondary antibody reaction was carried out by substituting the antibody for a goat anti-mouse IgG antibody (Cy-2 conjugate for glia cell staining) or a goat anti-rabbit IgG antibody (Cy-5 conjugate for serotonin-producing cell staining) at 4° C. overnight (12 to 18 hours). Subsequently, the specimens were washed with PBST at room temperature for one hour. After washing, PBST was replaced by 30%, 50%, 70% glycerol/PBS and the whole zebrafish were mounted on glass slides to obtain preparations. Fluorescence was observed under excitation wavelength of Cy-2 and Cy-5 and the distribution of the glia cells or the serotonin-producing cells was recorded. It is to be noted that glia cells were observed from the lateral side of zebrafish, while the serotonin-producing cells were photographed from the dorsal side in order to observe the distribution of the cells along the midline.
# T1 sequence (P22314 whole entry, other chains not shown, the tested form may be a part): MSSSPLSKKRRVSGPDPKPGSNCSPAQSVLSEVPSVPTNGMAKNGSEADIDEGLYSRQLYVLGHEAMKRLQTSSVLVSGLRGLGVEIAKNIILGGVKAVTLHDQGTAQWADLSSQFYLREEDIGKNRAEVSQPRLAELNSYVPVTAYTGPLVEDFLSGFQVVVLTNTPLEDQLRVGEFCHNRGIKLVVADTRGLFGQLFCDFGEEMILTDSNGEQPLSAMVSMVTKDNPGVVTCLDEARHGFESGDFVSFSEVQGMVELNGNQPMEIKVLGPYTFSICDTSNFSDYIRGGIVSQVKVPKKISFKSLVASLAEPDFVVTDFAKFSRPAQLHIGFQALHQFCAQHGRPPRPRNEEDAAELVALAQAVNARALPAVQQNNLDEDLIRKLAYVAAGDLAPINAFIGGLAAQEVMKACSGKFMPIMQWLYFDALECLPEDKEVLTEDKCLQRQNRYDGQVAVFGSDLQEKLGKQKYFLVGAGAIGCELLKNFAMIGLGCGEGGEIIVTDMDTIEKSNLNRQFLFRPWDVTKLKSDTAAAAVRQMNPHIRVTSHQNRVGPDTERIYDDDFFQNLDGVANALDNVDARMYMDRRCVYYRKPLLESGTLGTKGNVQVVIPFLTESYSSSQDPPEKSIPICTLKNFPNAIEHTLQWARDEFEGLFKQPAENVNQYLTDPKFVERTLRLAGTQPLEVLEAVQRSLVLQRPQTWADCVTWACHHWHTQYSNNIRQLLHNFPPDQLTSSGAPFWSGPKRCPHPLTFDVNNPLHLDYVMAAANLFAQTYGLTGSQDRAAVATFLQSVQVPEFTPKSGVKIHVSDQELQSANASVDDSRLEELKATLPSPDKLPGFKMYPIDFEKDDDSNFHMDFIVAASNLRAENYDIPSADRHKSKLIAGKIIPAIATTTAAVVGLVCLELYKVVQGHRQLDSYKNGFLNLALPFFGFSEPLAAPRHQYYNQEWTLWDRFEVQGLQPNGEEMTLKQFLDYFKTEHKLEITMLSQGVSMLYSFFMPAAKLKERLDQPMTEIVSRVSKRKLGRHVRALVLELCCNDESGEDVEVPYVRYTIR
# T1 sequence (P62837 whole entry, other chains not shown, the tested form may be a part): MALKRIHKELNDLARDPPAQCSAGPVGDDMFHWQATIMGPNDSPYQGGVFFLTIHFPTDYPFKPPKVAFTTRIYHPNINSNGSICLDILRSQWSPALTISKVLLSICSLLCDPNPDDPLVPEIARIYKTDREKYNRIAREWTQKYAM
molecule,measurement,setting,value
"FH-CRBN complex: CRBN fused with a FLAG epitope tag and binding proteins, purified from mammalian cell lysate with M2 FLAG agarose beads",detection of ubiquitinated proteins by immunoblotting,[1],proteins that would not be detected in the absence of addition of CRBN were detected
CC(C)C[C@@H](C=O)NC(=O)[C@H](CC(C)C)NC(=O)[C@H](CC(C)C)NC(=O)OCc1ccccc1 [MG132] (Cbz-Leu-Leu-Leu-aldehyde),bands representing the CRBN-containing proteins (self-ubiquitination),[2],a number of bands representing the CRBN-containing proteins were detected
B1,brain size of embryo,"zebrafish embryo brain; crbn gene-overexpressing embryo, compared to the normal embryo (FIG. 1, upper right)",brain enlargement
same,brain size of embryo,"zebrafish embryo brain; lhx2 gene knocked down while crbn gene overexpressed (FIG. 1, lower right)",brain enlargement
same,morphology of the neuron network in the brain,"[3]; CRBN overexpression (FIG. 2, right)",morphologically normal
same,enlargement of forebrain and midbrain in volume,"[3]; CRBN overexpression, shape retained (FIG. 2, right)",approximately 1.5 times
same,spatial distribution of glia cells and serotonin-producing cells,[4],normal spatial distribution was maintained
same,serotonin-producing cells,[4]; 49 hours after fertilization (FIG. 7),increased
same,glia cells,[4]; 56 hours after fertilization (FIG. 6),increased
